B1: Leukocyte immunoglobulin-like receptor subfamily B member 2 (Homo sapiens), Q8N423 (parent)
chain: MTPIVTVLICLGLSLGPRTRVQTGTIPKPTLWAEPDSVITQGSPVTLSCQGSLEAQEYRLYREKKSASWITRIRPELVKNGQFHIPSITWEHTGRYGCQYYSRARWSELSDPLVLVMTGAYPKPTLSAQPSPVVTSGGRVTLQCESQVAFGGFILCKEGEDEHPQCLNSQPHARGSSRAIFSVGPVSPNRRWSHRCYGYDLNSPYVWSSPSDLLELLVPGVSKKPSLSVQPGPVMAPGESLTLQCVSDVGYDRFVLYKEGERDLRQLPGRQPQAGLSQANFTLGPVSRSYGGQYRCYGAHNLSSECSAPSDPLDILITGQIRGTPFISVQPGPTVASGENVTLLCQSWRQFHTFLLTKAGAADAPLRLRSIHEYPKYQAEFPMSPVTSAHAGTYRCYGSLNSDPYLLSHPSEPLELVVSGPSMGSSPPPTGPISTPGPEDQPLTPTGSDPQSGLGRHLGVVIGILVAVVLLLLLLLLLFLILRHRRQGKHWTSTQRKADFQHPAGAVGPEPTDRGLQWRSSPAADAQEENLYAAVKDTQPEDGVEMDTRAAASEAPQDVTYAQLHSLTLRRKATEPPPSQEREPPAEPSIYATLAIH
partner: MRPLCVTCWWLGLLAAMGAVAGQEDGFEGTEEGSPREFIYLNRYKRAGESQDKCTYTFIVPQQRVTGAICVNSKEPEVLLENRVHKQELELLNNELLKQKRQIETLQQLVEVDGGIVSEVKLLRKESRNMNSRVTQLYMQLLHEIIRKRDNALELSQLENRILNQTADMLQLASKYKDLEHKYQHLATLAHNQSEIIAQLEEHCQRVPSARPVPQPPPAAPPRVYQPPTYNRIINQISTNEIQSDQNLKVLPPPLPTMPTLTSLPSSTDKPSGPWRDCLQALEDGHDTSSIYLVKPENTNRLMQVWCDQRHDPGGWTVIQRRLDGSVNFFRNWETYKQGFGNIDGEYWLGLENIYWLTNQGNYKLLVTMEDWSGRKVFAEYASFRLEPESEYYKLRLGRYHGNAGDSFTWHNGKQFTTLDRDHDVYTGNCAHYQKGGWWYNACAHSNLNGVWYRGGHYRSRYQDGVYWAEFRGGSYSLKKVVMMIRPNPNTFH
B2: Leukocyte immunoglobulin-like receptor subfamily B member 2 (Homo sapiens), Q8N423 (parent)
chain: B1 chain

Variants of: B1
Conditions: with angl2_human ANGPTL2, Q9UKU9

Variant | effect of a mutation on the interaction
T93A | increasing interaction strength
Y96A;G392D | disrupting interaction strength
R59A;Y61A;W90A;D200A;N202A;Y205A | decreasing interaction strength
G94D | decreasing interaction strength
R59A;Y61A | decreasing interaction strength
W90A;D200A;N202A;Y205A | with no effect
H92S;T93A;G94D;R95E;Y96A;G97R;Q99R;Y100G | decreasing interaction strength
R95E | decreasing interaction strength
H92S | with no effect
Y96A;Y394A | disrupting interaction strength
G97R | with no effect
Y96A;T393E | decreasing interaction strength
Y96A | decreasing interaction strength

Now from value to variant:

effect of a mutation on the interaction | Variant
with no effect | G392D
decreasing interaction strength | Y394A
with no effect | T393E
with no effect | Q99R
decreasing interaction strength | Y100G

Variants of: B2
Conditions: with angl5_human ANGPTL5, Q86XS5
Sequence of angl5_human ANGPTL5, Q86XS5 (Q86XS5 whole entry): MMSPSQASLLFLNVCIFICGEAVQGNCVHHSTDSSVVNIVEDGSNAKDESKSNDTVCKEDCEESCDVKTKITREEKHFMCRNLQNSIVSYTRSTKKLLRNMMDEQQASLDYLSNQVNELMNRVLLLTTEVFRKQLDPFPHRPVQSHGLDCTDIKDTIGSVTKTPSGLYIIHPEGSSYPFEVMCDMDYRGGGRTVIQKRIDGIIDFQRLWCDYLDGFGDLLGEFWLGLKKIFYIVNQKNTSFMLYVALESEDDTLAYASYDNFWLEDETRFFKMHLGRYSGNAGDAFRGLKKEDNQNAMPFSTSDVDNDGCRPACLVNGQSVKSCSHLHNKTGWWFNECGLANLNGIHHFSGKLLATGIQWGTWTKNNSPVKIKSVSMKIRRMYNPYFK

Variant | effect of a mutation on the interaction
Y96A;Y394A | disrupting interaction strength
W90A;D200A;N202A;Y205A | decreasing interaction strength
R95E | decreasing interaction strength
Y96A | decreasing interaction strength
Y96A;T393E | disrupting interaction strength
T93A | decreasing interaction strength
G94D | disrupting interaction strength
H92S | decreasing interaction strength
R59A;Y61A;W90A;D200A;N202A;Y205A | decreasing interaction strength
Y96A;G392D | disrupting interaction strength
R59A;Y61A | with no effect

Next, values leading:

effect of a mutation on the interaction | Variant
decreasing interaction strength | Y394A
decreasing interaction strength | Y100G
decreasing interaction strength | T393E
with no effect | G97R
decreasing interaction strength | G392D
decreasing interaction strength | Q99R

Source: IntAct's records for PubMed 24899623
